These results are taken from patent US6277976, “Or-1, an orphan receptor belonging to the nuclear receptor family” (Karo Bio AB).

Data set [1] has as its target T1, OR-1 (UniProt Q62755 SEQ:1-446).
T1 sequence: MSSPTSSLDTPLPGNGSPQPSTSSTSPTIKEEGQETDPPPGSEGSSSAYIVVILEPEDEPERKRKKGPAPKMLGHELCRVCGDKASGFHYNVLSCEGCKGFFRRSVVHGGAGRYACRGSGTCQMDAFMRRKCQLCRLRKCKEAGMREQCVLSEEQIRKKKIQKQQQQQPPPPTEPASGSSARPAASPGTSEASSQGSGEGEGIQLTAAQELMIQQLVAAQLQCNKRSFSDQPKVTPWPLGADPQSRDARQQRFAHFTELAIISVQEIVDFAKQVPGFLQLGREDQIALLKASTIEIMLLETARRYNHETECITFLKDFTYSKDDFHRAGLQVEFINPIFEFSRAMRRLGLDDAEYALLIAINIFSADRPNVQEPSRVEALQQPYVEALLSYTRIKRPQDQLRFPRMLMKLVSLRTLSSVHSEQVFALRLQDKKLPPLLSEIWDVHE
The data set can be described thus: EMSA; OR-1 alone. The settings on record: tags: none; TNT reticulocyte lysate; label: 32P. The protocol: (§1) Gel shifts were performed using in vitro-translated OR-1 and RXR with the commercially-available TNT™-coupled reticulocyte lysate system (Promega, Madison USA). Proteins were incubated on ice for 15 min with 4 μg of poly (dI-dC) and with unlabelled competitor DNA where indicated in a solution comprising 100 mM KCl; 10 mM Hepes, pH 7.6; 1 mM dithiothreitol; 1 mM EDTA; 10% (wt./vol) glycerol, before addition of 0.5 ng of a ^32P-end labelled oligonucleotide probe. The reaction mixtures were incubated for a further 10 min at 22° C. before electrophoresis at 200V and 4° C. in pre-run 4% polyacryliamide/0.25 TBE (0.089 m tris-borate pH 8.3, 0.025 EDTA) gels. The following oligonucleotides and their complements were used as probes: DR0 […] (SEQ ID NO:3) DR1 […] (SEQ ID NO:4) DR2 […] (SEQ ID NO:5) DR3 […] (SEQ ID NO:6) DR4 […] (SEQ ID NO:7) DR5 […] (SEQ ID NO:8) DR6 […] (SEQ ID NO:9)

For data set [2], the target named is T1, OR-1. As to the kind of experiment: EMSA; OR-1 alone. The settings on record: tags: none; TNT reticulocyte lysate; label: 32P. The protocol:
as §1
(§2) The appearance of this complex depends on the presence of RXR and is inhibited by a 10-fold excess of the specific DNA target element, but not by a 100-fold excess of an unrelated DNA element—see FIG. 5B, lane 7)
The source holds these as a separate data set. For orientation: In EMSA bound probe runs differently from free probe, usually more slowly.

In the next data set the target is T2, RXR (RXRalpha) (UniProt Q05343 Q05343:1-467).
T2 sequence: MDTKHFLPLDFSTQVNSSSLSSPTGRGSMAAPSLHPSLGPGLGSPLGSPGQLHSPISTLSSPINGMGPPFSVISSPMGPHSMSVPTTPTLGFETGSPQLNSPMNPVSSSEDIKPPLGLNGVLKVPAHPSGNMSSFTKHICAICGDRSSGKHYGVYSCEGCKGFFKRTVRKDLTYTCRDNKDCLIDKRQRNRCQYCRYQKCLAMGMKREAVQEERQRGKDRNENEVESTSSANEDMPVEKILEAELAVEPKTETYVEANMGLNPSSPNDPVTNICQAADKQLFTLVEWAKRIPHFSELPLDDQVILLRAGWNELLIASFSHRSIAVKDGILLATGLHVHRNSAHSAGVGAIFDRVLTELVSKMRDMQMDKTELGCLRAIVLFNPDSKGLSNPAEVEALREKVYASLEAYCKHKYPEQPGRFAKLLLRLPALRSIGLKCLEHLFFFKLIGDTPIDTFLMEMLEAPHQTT
The data set can be described thus: EMSA; RXR alone. The settings on record: tags: none; pRRXR-T7, TNT reticulocyte lysate; label: 32P. The protocol:
as §1, §2

Another data set deals with T3, OR-1/RXR heterodimer (UniProt Q62755;Q05343 Q62755:1-446,Q05343:1-467).
T3 sequence 1: T1 sequence
T3 sequence 2: T2 sequence
As to the kind of experiment: EMSA; 100 mM KCl, 10 mM Hepes pH 7.6, 1 mM EDTA, 22 C; inhibited by 10-fold excess specific DNA, not by 100-fold unrelated DNA. The following applies: tags: RXR from pRRXR-T7; label: 32P. The method, then: as §1, §2

B1: DR6 (dsDNA)
DNA 1: AGTCAGGTCACTCGTTAGGTCAGTCA
DNA 2: TGACTGACCTAACGAGTGACCTGACT
As for B1, in the data set with OR-1 [1], the binding result was “no binding”.

B2: DR3 (dsDNA)
DNA 1: AGTCCAGGTCACTCAGGTCAGTCA
DNA 2: TGACTGACCTGAGTGACCTGGACT
Take B2: the binding result with OR-1 [1] is “no binding”.

B3: DR0 (dsDNA)
DNA 1: AGCTTCAGGTCAAGGTCAGGTTCA
DNA 2: TGAACCTGACCTTGACCTGAAGCT
Turning to B3, in the data set with OR-1 [1], the binding result is “no binding”.

B4: DR1 (dsDNA)
DNA 1: AGCTTCAGGTCACAGGTCAGTTCA
DNA 2: TGAACTGACCTGTGACCTGAAGCT
Turning to B4, the binding result in the data set with OR-1 [1] is “no binding”.

B5: DR4 (dsDNA)
DNA 1: AGTCAGGTCACTCGAGGTCAGTCA
DNA 2: TGACTGACCTCGAGTGACCTGACT
On to B5, for which the values for the binding result with OR-1 [2], with RXR (RXRalpha) and with OR-1/RXR heterodimer were “no binding”, “no binding” and “binds”, respectively.

B6: DR5 (dsDNA)
DNA 1: AGTCAGGTCACTCGTAGGTCAGTCA
DNA 2: TGACTGACCTACGAGTGACCTGACT
Consider B6, for which the binding result with OR-1 [1] was “no binding”.

B7: DR2 (dsDNA)
DNA 1: AGCTTAGGTCACCAGGTCAGTTCA
DNA 2: TGAACTGACCTGGTGACCTAAGCT
As for B7, the binding result with OR-1 [2] is reported as “no binding”.
